Test results taken from patent publication US20130004522A1, “PHOTOTRIGGERED NANOPARTICLES FOR CELL AND TISSUE TARGETING” (priority 2009, published 2013).
Where no end group is shown, it is not given here. The star is where a group is joined. DMNB = 4,5-dimethoxy-2-nitrobenzyl photo-removable caging group, COc1cc(C*)c([N+](=O)[O-])cc1OC

Experiments:
[1] = target: integrin β1 (Homo sapiens, UniProt P05556); conditions: previously shown; cited from earlier work
[2] = Un-caging of the caged peptide targeter in solution by HPLC-UV; assay type: physicochemical; conditions: ten seconds post illumination, retention time shifts to that of the non-caged targeter
Protocol: HPLC assays were performed on an HP 1100 HPLC system. Samples were injected in 50-μl volumes onto a C18 column. The column was eluted with an aqueous solution at 1 ml/min. The peptides were detected by a UV detector with absorbance wavelength set at 230 nm.
In order to determine the un-caging ability of the targeter (e.g., the peptide GGGGY(DMNB)IGSR—NH2 (SEQ ID NO: 2)) leading to its transformation to the active state, solutions of non-caged peptide (GGGGYIGSR-NH2) (SEQ ID NO: 2), or caged peptides subjected or not subjected to 1 min of illumination were evaluated by HPLC-UV. Retention time in the column of the non-caged targeter was ˜20 min (FIG. 3A) while that of the non-illuminated caged targeter was longer (˜30 min, FIG. 3B) due to the caging group existence which increases the hydrophobicity of the peptide. Ten seconds post illumination a shift in the retention time had occurred and the peptide had exited the column after ˜20 min (FIG. 3C).

integrin β1, sequence (P05556 21-798, species assumed): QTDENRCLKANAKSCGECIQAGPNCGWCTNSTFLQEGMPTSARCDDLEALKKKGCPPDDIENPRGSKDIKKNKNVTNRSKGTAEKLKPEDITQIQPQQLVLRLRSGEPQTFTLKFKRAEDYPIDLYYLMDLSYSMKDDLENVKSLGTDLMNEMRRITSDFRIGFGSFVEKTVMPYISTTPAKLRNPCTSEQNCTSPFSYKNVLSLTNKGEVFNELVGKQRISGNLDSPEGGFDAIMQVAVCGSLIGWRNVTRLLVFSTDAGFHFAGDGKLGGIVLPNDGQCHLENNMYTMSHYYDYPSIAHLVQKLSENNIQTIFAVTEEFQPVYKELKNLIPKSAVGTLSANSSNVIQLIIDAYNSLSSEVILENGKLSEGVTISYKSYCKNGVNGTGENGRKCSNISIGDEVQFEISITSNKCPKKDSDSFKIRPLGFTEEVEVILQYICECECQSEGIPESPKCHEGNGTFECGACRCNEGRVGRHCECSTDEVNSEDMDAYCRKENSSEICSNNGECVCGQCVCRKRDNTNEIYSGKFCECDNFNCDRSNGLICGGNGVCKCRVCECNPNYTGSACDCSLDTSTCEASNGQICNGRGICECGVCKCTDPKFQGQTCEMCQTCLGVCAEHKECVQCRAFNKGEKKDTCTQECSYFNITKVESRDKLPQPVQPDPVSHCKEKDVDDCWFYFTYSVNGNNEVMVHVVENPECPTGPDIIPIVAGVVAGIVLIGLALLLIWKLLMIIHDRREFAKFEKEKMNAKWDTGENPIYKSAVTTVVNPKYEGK

CDPGYIGSR
cell adhesion and migration [1]: promote cell adhesion and migration

GGGGY(DMNB)IGSR—NH2 (GGGGY(DMNB)IGSR-NH2; N-terminus assumed; SMILES CC[C@H](C)[C@H](NC(=O)[C@H](Cc1ccc(OCc2cc(OC)c(OC)cc2[N+](=O)[O-])cc1)NC(=O)CNC(=O)CNC(=O)CNC(=O)CN)C(=O)NCC(=O)N[C@@H](CO)C(=O)N[C@@H](CCCNC(=N)N)C(N)=O)
release of the caging group from the peptide after illumination [2]: quick release of the caging group

YIGSR-NH2
cell adhesion and migration [1]: promote cell adhesion and migration
